# Measured values from IntAct's records for PubMed 20865002.
# B1: Serine/threonine-protein kinase RAD53 (Saccharomyces cerevisiae), P22216 (parent)
# chain: MENITQPTQQSTQATQRFLIEKFSQEQIGENIVCRVICTTGQIPIRDLSADISQVLKEKRSIKKVWTFGRNPACDYHLGNISRLSNKHFQILLGEDGNLLLNDISTNGTWLNGQKVEKNSNQLLSQGDEITVGVGVESDILSLVIFINDKFKQCLEQNKVDRIRSNLKNTSKIASPGLTSSTASSMVANKTGIFKDFSIIDEVVGQGAFATVKKAIERTTGKTFAVKIISKRKVIGNMDGVTRELEVLQKLNHPRIVRLKGFYEDTESYYMVMEFVSGGDLMDFVAAHGAVGEDAGREISRQILTAIKYIHSMGISHRDLKPDNILIEQDDPVLVKITDFGLAKVQGNGSFMKTFCGTLAYVAPEVIRGKDTSVSPDEYEERNEYSSLVDMWSMGCLVYVILTGHLPFSGSTQDQLYKQIGRGSYHEGPLKDFRISEEARDFIDSLLQVDPNNRSTAAKALNHPWIKMSPLGSQSYGDFSQISLSQSLSQQKLLENMDDAQYEFVKAQRKLQMEQQLQEQDQEDQDGKIQGFKIPAHAPIRYTQPKSIEAETREQKLLHSNNTENVKSSKKKGNGRFLTLKPLPDSIIQESLEIQQGVNPFFIGRSEDCNCKIEDNRLSRVHCFIFKKRHAVGKSMYESPAQGLDDIWYCHTGTNVSYLNNNRMIQGTKFLLQDGDEIKIIWDKNNKFVIGFKVEINDTTGLFNEGLGMLQEQRVVLKQTAEEKDLVKKLTQMMAAQRANQPSASSSSMSAKKPPVSDTNNNGNNSVLNDLVESPINANTGNILKRIHSVSLSQSQIDPSKKVKRAKLDQTSKGPENLQFS
# partner: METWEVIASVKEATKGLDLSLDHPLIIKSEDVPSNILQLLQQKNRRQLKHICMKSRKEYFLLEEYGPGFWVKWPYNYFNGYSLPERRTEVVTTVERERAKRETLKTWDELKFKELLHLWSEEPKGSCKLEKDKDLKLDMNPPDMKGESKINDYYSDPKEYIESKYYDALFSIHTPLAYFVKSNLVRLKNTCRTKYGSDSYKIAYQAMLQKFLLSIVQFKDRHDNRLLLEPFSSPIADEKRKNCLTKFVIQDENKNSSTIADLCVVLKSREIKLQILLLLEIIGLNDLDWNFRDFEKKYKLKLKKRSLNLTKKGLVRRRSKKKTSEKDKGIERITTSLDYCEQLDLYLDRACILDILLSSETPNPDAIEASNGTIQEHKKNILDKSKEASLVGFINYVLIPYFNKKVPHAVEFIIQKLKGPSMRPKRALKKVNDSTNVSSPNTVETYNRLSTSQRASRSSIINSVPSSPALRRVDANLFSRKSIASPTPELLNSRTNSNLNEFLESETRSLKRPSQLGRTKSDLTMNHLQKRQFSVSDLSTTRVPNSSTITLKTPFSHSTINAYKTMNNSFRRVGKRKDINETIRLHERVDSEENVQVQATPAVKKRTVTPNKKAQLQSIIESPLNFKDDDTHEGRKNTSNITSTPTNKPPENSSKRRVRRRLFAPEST
# Variants of: B1
# Conditions: with sld3_yeast SLD3, P53135
row,Variant,effect of a mutation on the interaction
1,K227A,disrupting interaction
